Test results taken from patent US20150272885A1 (STC UNM, published 2015).
No end group written: not given here.

B1: MC40-targeted protocells (mesoporous silica nanoparticle-supported lipid bilayer modified with 0.015 wt %, ~6 peptides/particle, of the MC40 targeting peptide) (peptide, not shown: small tags and cut ends)
peptide: ASVHFPPC
modifications: also: C-terminal Cys conjugated via sulfhydryl-to-amine crosslinker to DOPE in the protocell lipid bilayer
B2: TGAILHP peptide (SEQ ID NO: 18) (peptide)
peptide: TGAILHP
notes: 7-mer from phage display; It was selected on CHO-K1 cells expressing human ephrin B2, with counter-selection on parental CHO-K1 and on CHO-K1 expressing human ephrin B1; also called ephrin B2 targeting peptide
B3: MET binding peptide WPRLTNM (SEQ ID NO: 5) (peptide)
peptide: WPRLTNM
notes: 7-mer from Ph.D.-7 phage display, tested as a phage clone
B4: TGAILHP-targeted MSN-SLBs, low peptide valency (0.015 wt % or ~5 peptides/particle) (other)
peptide: TGAILHP
modifications: not fully specified
notes: Multivalent display on mesoporous silica nanoparticle-supported lipid bilayers; also called MSN-SLBs modified with 0.015 wt % of TGAILHP and 10 wt % PEG-2000
B5: MET binding peptide TSPVALL (SEQ ID NO: 3) (peptide)
peptide: TSPVALL
notes: as for B3
B6: MET binding peptide IPLKVHP (SEQ ID NO: 4) (peptide)
peptide: IPLKVHP
notes: as for B3
B7: MET binding peptide TATFWFQ (SEQ ID NO: 2) (peptide)
peptide: TATFWFQ
notes: as for B3
B8: MC40 targeting peptide ASVHFPP (SEQ ID NO: 1) (peptide)
peptide: ASVHFPP
notes: 7-mer selected from the Ph.D.-7 phage display library; also called MC40 clone

Key:
[1] = target: Met (hepatocyte growth factor receptor) on Hep3B cells (human) (UniProt P08581); experiment: flow cytometry saturation binding on cytochalasin D-treated Hep3B cells, 1 hour at 37 C; specific binding = total minus binding with saturating unlabeled HGF; apparent Kd of the multivalent particle
Met (hepatocyte growth factor receptor) on Hep3B cells (human), sequence (P08581 25-1390): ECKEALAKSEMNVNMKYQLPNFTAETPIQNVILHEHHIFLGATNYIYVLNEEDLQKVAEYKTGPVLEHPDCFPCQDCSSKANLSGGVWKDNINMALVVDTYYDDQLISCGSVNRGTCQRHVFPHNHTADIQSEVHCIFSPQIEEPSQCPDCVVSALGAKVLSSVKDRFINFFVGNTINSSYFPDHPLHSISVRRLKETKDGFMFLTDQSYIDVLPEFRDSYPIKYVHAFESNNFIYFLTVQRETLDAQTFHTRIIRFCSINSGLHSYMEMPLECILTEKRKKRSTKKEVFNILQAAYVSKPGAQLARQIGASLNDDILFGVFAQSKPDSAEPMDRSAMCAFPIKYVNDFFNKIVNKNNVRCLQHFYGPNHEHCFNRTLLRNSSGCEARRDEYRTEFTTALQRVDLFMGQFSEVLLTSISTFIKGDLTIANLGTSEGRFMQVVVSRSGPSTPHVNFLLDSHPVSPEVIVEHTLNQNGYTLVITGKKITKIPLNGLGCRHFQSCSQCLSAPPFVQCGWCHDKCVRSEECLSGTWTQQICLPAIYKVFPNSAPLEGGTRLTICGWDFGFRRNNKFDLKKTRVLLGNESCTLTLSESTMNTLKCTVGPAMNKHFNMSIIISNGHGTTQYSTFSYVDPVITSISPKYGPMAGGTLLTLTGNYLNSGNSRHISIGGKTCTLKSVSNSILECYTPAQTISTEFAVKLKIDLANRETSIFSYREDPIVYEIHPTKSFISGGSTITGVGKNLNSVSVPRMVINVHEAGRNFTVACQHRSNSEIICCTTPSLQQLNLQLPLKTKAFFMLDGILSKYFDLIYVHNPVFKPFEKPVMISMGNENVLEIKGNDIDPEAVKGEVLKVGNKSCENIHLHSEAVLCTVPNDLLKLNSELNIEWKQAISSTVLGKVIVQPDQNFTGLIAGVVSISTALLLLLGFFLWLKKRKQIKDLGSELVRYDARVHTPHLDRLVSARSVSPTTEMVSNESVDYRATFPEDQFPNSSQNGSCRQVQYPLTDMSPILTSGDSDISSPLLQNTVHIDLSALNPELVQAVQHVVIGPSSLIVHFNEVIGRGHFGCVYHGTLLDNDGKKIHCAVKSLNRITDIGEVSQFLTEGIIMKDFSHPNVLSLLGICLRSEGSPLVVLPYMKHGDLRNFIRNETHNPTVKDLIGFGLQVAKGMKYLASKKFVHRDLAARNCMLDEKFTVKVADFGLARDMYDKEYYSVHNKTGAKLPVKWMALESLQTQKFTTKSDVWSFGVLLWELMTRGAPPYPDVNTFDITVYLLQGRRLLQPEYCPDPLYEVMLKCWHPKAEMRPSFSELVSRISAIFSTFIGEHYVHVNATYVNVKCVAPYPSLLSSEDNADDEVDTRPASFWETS

ephrin B2 (EB2) on cells [2] = target: T1, ephrin B2 (EB2) on cells (human, UniProt P52799 28-333); experiment: phage display selection on CHO-K1 cells expressing human EB2, with counter-selection on parental CHO-K1 and on CHO-K1 expressing ephrin B1
T1 construct: whole, on cells; The species is stated as human for the CHO-K1 transfectants; also called human ephrin B2
T1 sequence (P52799 28-333): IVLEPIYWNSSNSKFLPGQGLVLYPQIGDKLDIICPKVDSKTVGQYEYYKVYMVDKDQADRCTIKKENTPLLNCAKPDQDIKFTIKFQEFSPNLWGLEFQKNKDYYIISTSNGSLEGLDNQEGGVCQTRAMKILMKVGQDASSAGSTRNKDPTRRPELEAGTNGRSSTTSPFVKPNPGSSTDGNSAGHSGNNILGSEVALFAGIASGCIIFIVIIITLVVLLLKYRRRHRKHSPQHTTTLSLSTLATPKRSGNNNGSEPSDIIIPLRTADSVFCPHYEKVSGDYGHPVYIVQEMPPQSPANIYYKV

[3] = target: T2, recombinant human Met (rhMet), fused to the Fc domain of human IgG (human, UniProt P08581 25-932); experiment: phage display selection on rhMet-Fc, five rounds; phage ELISA on rhMet
T2 construct: also called MET receptor; hepatocyte growth factor receptor; not shown: Fc domain of human IgG
T2 sequence (P08581 25-932 limits assumed): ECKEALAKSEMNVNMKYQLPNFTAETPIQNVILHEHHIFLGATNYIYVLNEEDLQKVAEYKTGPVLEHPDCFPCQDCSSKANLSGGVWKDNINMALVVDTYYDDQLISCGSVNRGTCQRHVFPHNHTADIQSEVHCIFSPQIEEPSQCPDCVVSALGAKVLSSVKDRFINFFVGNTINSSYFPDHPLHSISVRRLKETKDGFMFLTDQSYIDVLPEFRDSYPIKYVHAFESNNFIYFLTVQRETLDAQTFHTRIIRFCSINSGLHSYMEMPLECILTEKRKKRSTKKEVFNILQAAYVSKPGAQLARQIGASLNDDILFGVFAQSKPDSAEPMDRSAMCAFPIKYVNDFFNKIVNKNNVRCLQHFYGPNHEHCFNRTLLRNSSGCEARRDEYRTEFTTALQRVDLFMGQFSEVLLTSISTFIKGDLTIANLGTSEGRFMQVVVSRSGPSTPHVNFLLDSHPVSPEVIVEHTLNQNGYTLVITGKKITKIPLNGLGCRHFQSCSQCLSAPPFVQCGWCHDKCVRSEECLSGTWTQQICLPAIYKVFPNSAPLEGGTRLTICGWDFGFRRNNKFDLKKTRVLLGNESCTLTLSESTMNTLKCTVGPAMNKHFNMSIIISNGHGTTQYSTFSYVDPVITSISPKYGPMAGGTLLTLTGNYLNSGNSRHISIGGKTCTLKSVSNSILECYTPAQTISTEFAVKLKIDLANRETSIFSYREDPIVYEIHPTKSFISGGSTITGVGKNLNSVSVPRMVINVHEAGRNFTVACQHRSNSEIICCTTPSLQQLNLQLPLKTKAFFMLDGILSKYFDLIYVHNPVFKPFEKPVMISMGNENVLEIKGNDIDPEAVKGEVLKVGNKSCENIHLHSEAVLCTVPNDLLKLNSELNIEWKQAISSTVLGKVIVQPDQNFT
Description: Peptides at 1×10¹¹ pfu/mL were incubated with 100 nM of recombinant human Met (rhMet), fused to the Fc domain of human IgG, for 1 hour at room temperature. […] Bound phage clones were eluted with a low-pH buffer (0.2 M glycine with 1 mg/mL BSA, pH 2.2), and elutants were amplified via infection of the host bacterium (E. coli ER2738).
1×10¹¹ pfu/mL were incubated with 100 nM of recombinant human Met (rhMet), fused to the Fc domain of human IgG, for 1 hour at room temperature. […] Bound phage clones were eluted with a low-pH buffer (0.2 M glycine with 1 mg/mL BSA, pH 2.2), and elutants were amplified via infection of the host bacterium (E. coli ER2738). […] Peptides specific for protein A and protein G were avoided by alternating rounds of selection between protein A-coated magnetic particles and protein G-coated magnetic particles. After five rounds of selection, DNA was recovered from 40 individual clones and sequenced using the −96 gIII primer provided with the Ph.D.™-7 kit.

ephrin B2 (EB2) on cells [4] = target: T1, ephrin B2 (EB2) on cells; experiment: flow cytometry, EB2-positive HEK 293 against EB2-negative parental CHO-K1

| Binder | binding result [3] | also measured |
| --- | --- | --- |
| B1 |  | Kd [1]: 1.05 nM |
| B2 |  | binding result (ephrin B2 (EB2) on cells [2]): binds |
| B3 | binds |  |
| B4 |  | fold higher affinity for HEK 293 cells than for EB2-negative cells (parental CHO-K1) (ephrin B2 (EB2) on cells [4]): 1000 fold |
| B5 | binds |  |
| B6 | binds |  |
| B7 | binds |  |
| B8 | binds |  |
